From article PMC9374335, “C11orf94/Frey is a key regulator for male fertility by controlling Izumo1 complex assembly” (Science Advances, 2022)

Target: T1, Izumo1-3xFLAG (mouse, UniProt Q9D9J7 22-397)
T1 construct: Izumo sperm-egg fusion protein 1, mouse; open reading frame amplified from murine testis cDNA; source: HEK293T, transfected, in lysate (CHAPSO); not shown: 3xFLAG, C-terminal, kept
T1 sequence (looked up): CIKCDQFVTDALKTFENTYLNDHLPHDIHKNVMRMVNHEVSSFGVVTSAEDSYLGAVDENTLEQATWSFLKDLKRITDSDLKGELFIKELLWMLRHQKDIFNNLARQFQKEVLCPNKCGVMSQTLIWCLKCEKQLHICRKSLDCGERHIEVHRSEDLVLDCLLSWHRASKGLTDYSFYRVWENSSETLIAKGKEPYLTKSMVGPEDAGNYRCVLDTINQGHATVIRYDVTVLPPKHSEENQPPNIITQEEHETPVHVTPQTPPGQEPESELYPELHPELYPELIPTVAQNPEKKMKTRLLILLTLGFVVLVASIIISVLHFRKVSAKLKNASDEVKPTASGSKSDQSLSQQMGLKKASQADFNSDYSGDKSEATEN
Experiment: co-IP; CHAPSO lysates of transfected HEK293T cells; 3xFLAG-tagged bait precipitated with anti-FLAG beads; with or without coexpressed C11orf94-3xmyc; Western blot
Details: partners not purified

fold change of the co-precipitation in the presence of C11orf94-3xmyc against its absence: ~1.7 fold
B1: murine ACE3 equipped with a C-terminal HA-tag (natural protein, mouse, UniProt D0G895 24-737, looked up)
chain: VGETSLNDFYSEAQAKLFLQFYEQTAQVVLNEFMEATWNYVTNITKQNQKNMLQKEADRSQFMLYFSTRARMFRTDHFLNQDVKRMLRKLQNIDKSALPTEDLLEYNRLLTYMETAYNRAEVCLDEGPCLTLEPDLQEIMATSRDQKELLWAWQGWRDAVGRQLRPVFEDYVRLSNKAAQYNGYKDMGALWRSKYESDTLEEDLEQLYKELQPLYLNLHAYVRRSLYRYYGPELIDLRGPIPAHLLGNMWAQSWNNILDLVLPYPTKAPEDITAIMKIQHWRPEKMFEEANLFFTSMGMLPAPPAFWIKSMMEKPADGREVECHTSSWNFYKFNDFRVKKCTEVTLEDLLSVFHQMGHIQYFLQYQNLSVIYQEGASPAFEEAVGSVIALSVSSHKYLLARGLLSQPHQDSEEEVNFLLGIALEKIAFIPFSYLVDKFRWKIFDGTISKITYNQEWWNFRLKYQGLCPPVPRSDDDFDPGAKFHIPANVPYIRYFLGLILQFQLHEALCEASGHVGPLHQCDNYNSKVAGKILGDLLKLGSSRPWREVLQEVTGESNISTKAFLTYFKPLMDWLVTENVKQGDTLGWPDFSCSFEEKITSKVSFLGTDTEPEQAYLGQWVLLSMSFFMLVLILALGFRLHYLEKQLLDEDTMILKTLPYSYFLGIAMEPHQAARKQWLLLGLCCILMLCCIGLLIRIVTQNTENTPWMKNEGQS
notes: Angiotensin-converting enzyme 3 (ACE3), mouse; open reading frame amplified from murine testis cDNA; also called ACE3-HA; angiotensin-converting enzyme 3; source: HEK293T, transiently transfected, in lysate (CHAPSO); not shown: HA, C-terminal, kept
